According to patent publication US20240294650A1:

biological target: endogenous murine MerTK on bone marrow-derived macrophages (mouse) (UniProt Q60805); experiment: FACS, mouse BMDM, WT minus MerTK KO
Sequence (Q60805 19-994): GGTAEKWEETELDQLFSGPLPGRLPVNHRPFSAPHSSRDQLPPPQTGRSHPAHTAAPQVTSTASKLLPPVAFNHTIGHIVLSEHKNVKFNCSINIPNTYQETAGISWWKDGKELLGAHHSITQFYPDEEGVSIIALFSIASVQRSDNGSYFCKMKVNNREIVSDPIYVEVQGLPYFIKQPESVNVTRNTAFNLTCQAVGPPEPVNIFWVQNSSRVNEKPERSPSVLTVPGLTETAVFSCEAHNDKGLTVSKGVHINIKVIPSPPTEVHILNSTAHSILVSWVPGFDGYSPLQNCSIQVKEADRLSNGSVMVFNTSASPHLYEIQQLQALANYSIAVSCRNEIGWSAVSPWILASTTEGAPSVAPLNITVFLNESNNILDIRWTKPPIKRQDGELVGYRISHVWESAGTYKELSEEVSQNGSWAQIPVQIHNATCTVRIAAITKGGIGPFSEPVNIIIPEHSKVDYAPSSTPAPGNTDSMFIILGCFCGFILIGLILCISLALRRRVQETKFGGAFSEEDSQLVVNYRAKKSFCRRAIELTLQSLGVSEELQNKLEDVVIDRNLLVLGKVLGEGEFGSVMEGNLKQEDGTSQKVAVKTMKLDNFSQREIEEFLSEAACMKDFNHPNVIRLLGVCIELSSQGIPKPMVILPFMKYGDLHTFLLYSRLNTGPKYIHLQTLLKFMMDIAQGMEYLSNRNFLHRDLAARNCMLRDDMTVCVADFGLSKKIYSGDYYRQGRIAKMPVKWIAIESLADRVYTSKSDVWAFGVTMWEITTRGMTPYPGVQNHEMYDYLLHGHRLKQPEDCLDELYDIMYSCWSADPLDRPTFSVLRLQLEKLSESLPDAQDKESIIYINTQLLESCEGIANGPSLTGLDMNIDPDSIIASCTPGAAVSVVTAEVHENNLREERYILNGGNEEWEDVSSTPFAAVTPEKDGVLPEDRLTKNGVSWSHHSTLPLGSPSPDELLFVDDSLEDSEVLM

MFI [MFI] | Binder
1130 | MTK-217 (antibody, human IgG1, V domains shown) VH: QVQLQQPGTEVVKPGASVKMSCRASGYTFTSYWITWVKQRPGQGLEWIGDIHPGSGINNYNEKFRSKATLTVDTSSSTVYMELSSLTSEDSAVYYCAKGGYYGSSYYVMDYWGQGTSVTVSS VL: DILLTQSPAILSVSPGERVSFSCRASQTIGTSIHWYQQRTNDSPRLLIKYASESISGIPSRFSGSGSGTDFTLSINSVESEDIADYYCQQSNDWPYTFGGGTKLEIK
1030 | MTK-201 (antibody, human IgG1, V domains shown) VH: QVQLRQSGPGLVQPSQSLSITCTVSGFSLSNYGLHWVRQSPGKGLEWLGVIWSGGITDYNAAFISRLSIIKDNSRSQVFFKMNSLQADDTAIYYCARKGHDPYAMDFWGQGTSVTVSS VL: QIVLTQSPPIMSAFLGERVTMTCTASSSVSSSYLHWYRQMPGSSPKLWIYDTSNLASGVPARFSGSGSGTSYSLTISSMEAEDAATYYCHQYHHSPYTFGGGTKLEIK
1170 | MTK-208 (antibody, human IgG1, V domains shown) VH: QVQLQQPGAELVVPGASVRLSCKASGYTFINYWMHWVKQRPGQGLEWIGEIDPSDSYANYNQKFKDKSTLSLDKSSSTAYMQLSSLTSEDSAVYYCARCDYYGRLDYWGQGTTLTVSS VL: QVVLTQSPAIMSASPGEKVTITCSASSSVSYMLWFQQKPGTSPKLWIYSTSNLASGVPARFSGSGSGTSYSLTISRLEAEDAATYYCQQRSSYPPITFGAGTKLELK
993 | MTK-221 (antibody, human IgG1, V domains shown) VH: QVTLKESGPGMLQSSQTLSLTCSFSGFSLSTSGMGVSWIRQPSGKGLEWLAHIYWDDDKRYNTSLQSRLTISKDTSRNQVFLKITSVDTADTATYFCGRLGAYSAFPYYFDYWGQGTTLTVSS VL: DIQMTQSPSSLSASLGGKVTITCKASQDIHKHIAWYQHKPGKGPRLLIHYTSTLQPGIPSRFSGSGSGRDYSFSISNLEPEDLATYYCLQYDNLWTFGGGTKLEIK
1270 | MTK-210 (antibody, human IgG1, V domains shown) VH: QVQLQQSGPELVKPGASVKISCKASDYEFSRSWMNWVKQRPGKGLEWIGRIYPGDGDTNYNGKFKGKATLTADKSSNTAYMQLNSLTSEDSAVYFCARKGGYYYSISNYFDYWGQGTTLTVSS VL: QIVLTQSPAIMSASPGVKVTMTCSASSSVSYMHWYQQKPGSSPRLLIYDTSNLASGVPVRFSGSGSGTSYSLTISRMEAEDAATYYCQQWSSYPPYTFGGGTKLEIK
